The values that follow come from patent US20170131285A1 (INSERM INSTITUT NATIONAL DE LA SANTE ET DE LA RECHERCHE …, published 2017).

Broadly, the Kd is the constant that tells how readily two partners part at equilibrium.

The test deals with T1, recombinant HSP70 (Heat Shock 70 kDa Protein) (human, UniProt P0DMV8 1-641).
T1 construct: also called HSP72; human HSP70
The test is described as follows: BLI (Octet Red), biotinylated A8 on streptavidin sensors, HSP70 in solution, 1:1 model global fit. On the procedure: Protein-protein interaction experiments were conducted at 25° C. in PBS with an Octet Red instrument (Forte Bio, Menlo Park, Calif., USA) by biolayer interferometry (BLI). The ligand (cmHSP70 or A8 or TLR2) was biotinylated using EZ-Link NHS-PEG₄-biotin (Thermo Fisher Scientific, Bonn, Germany) according to the manufacturer's protocol and immobilized at a concentration of 20 μg/ml on streptavidin sensors (ForteBio, Menlo Park, Calif., USA). These functionalized biosensors were dipped into black Greiner 96-well microplates agitated at […] and filled with a solution of 200 μL containing the analyte. All sensorgrams were corrected for baseline drift by subtracting a control sensor exposed to running buffer only. Each KD was determined with a 1:1 stoichiometry model using a global fit with Rmax unlinked by sensor (Forte Bio, Data analysis software version 7.1.0.89).
Protein-protein interaction experiments were conducted with an Octet Red instrument (ForteBio, USA). The ligand (A8 or TLR2) was biotinylated using EZ-Link NHS-PEG₄-biotin (2 nM, 30 min, RT, Thermo Fisher Scientific, Germany) and immobilized on streptavidin sensors (96-well plate black, ForteBio, USA). […] Each KD was determined with a 1:1 stoichiometry model using a global fit with Rmax unlinked by sensor (ForteBio, Data analysis software version 7.1.0.89).
On the technique in general: BLI is a label-free optical method that tracks binding on a fibre tip over time.

T1 sequence (P0DMV8 whole entry): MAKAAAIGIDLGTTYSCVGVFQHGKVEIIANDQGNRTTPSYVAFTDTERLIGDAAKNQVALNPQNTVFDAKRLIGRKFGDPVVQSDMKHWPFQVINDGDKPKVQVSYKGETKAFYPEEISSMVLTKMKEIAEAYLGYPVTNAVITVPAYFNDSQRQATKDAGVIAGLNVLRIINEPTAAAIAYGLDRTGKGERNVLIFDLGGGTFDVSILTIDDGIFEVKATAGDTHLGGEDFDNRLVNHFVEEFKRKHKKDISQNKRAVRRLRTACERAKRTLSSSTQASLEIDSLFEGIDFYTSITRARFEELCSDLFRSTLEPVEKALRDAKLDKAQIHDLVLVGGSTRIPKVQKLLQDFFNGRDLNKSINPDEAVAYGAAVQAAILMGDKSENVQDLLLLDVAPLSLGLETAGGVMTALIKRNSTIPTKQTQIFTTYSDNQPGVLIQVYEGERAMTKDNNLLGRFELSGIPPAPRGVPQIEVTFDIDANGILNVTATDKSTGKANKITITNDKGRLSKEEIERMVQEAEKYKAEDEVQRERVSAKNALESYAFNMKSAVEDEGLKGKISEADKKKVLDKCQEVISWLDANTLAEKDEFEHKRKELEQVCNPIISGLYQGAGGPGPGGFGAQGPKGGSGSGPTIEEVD

B1: peptide aptamer A8 (peptide)
peptide: SPWPRPTY
modifications: biotinylated with EZ-Link NHS-PEG4-biotin when immobilised on streptavidin sensors for BLI (site not stated); no modification stated for the solution assays
notes: also called A8 peptide aptamer; HSP70 peptide aptamer A8
For the molecule B1, the Kd worked out at 2.2 nM.
